Assay results: patent publication US20020142976

Tested on: IDH22

ATR, sequence (chain, as listed by the source): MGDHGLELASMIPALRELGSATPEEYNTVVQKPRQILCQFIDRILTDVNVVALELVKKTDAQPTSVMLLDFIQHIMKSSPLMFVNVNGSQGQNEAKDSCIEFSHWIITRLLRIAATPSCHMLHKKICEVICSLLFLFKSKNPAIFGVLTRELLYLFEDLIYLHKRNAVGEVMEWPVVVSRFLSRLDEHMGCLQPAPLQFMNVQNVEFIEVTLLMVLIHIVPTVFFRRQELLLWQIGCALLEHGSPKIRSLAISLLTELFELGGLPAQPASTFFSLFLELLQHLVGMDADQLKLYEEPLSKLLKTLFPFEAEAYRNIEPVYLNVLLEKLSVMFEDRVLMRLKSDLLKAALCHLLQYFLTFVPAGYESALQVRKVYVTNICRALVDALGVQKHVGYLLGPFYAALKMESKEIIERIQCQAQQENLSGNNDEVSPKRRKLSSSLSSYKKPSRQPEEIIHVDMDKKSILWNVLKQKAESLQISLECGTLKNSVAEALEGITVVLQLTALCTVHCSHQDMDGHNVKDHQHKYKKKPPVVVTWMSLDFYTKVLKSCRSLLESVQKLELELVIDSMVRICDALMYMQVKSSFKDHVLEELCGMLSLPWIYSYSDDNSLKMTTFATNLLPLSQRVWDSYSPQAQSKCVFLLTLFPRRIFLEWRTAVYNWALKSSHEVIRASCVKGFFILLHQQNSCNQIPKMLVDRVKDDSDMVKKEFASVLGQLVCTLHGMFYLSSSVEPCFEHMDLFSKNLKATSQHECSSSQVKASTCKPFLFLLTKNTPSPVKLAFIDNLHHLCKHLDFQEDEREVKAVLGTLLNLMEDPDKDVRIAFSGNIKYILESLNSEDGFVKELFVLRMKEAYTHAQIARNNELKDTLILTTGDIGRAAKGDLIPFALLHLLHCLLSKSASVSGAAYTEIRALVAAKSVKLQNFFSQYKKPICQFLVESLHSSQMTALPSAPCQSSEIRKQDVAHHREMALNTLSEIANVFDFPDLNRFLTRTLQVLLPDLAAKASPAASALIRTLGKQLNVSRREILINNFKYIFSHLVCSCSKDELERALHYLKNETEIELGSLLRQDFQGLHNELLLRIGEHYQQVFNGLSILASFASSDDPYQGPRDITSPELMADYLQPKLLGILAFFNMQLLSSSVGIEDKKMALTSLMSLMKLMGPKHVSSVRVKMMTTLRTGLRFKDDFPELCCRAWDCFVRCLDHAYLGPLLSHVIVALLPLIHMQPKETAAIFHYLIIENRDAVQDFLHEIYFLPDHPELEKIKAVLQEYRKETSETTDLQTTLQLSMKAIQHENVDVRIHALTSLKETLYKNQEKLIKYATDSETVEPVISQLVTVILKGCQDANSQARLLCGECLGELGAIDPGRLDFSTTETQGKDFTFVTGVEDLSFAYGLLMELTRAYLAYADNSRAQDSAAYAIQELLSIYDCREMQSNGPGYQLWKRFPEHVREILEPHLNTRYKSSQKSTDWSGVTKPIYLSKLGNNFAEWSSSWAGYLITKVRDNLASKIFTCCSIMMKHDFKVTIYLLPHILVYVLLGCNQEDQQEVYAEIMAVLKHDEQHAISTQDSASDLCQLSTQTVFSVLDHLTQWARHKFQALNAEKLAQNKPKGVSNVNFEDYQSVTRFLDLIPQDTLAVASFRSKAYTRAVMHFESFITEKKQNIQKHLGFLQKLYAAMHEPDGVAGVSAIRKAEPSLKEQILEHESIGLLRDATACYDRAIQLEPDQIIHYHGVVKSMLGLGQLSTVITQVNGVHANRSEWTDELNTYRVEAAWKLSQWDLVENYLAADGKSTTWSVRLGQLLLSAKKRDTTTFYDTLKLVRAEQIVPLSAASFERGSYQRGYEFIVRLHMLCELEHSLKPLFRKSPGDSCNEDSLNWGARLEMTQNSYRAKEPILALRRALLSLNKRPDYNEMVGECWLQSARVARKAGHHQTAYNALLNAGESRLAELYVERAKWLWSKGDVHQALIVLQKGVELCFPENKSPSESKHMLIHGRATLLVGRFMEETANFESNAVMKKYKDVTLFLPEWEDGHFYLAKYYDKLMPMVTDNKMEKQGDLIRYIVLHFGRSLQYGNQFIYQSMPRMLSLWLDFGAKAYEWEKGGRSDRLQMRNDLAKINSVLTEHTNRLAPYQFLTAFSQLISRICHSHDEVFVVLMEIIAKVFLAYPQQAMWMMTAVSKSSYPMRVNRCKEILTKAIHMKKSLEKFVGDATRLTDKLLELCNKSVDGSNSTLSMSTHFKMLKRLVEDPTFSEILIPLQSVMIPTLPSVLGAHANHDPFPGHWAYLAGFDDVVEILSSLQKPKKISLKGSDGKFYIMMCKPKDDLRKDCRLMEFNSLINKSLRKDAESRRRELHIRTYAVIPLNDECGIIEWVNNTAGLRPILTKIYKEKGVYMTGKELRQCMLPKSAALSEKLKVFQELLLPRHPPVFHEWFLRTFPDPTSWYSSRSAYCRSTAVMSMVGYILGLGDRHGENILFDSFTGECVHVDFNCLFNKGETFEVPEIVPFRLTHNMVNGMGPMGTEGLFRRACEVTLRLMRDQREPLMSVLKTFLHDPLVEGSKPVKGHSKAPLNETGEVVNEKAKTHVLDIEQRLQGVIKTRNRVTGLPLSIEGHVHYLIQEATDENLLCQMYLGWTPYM

Q: How did the “phosphorylation of peptide substrate (32P kinase assay, plate-captured ATR)” value turn out when ATR was run?
A: ATR phosphorylated IDH22
